For the experiment, the target named is T1, MKK4-V1 (full length MKK4 fused to the V1 fragment of Venus YFP) (UniProt P45985 1-399).
T1 construct: source: HeLa, transfected, in live cells; not shown: Venus YFP fragment V1, C-terminal, kept
T1 sequence (looked up): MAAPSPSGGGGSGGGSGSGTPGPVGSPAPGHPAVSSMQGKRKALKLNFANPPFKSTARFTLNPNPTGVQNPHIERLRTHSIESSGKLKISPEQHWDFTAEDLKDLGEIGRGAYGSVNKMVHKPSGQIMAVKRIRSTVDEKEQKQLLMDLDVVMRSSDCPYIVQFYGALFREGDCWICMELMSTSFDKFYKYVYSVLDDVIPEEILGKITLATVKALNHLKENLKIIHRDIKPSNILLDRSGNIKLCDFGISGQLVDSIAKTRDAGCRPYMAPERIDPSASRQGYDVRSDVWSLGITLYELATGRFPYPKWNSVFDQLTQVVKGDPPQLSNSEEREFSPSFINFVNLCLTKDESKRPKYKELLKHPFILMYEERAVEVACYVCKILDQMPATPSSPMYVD
In words: split reporter (BiFC, NanoBiT); competitive PCA in HeLa cells: MKK-V1 and TRIB-V2 co-transfected with an increasing dose of an untagged competitor plasmid (ERK, p38 or TRIB); mean fluorescence by flow cytometry 24 h after transfection; doses are plasmid amounts relative to TRIB-V2. The conditions noted are these: partners not purified.

B1: untagged TRIB-3 (natural protein, UniProt Q96RU7 1-358, looked up)
chain: MRATPLAAPAGSLSRKKRLELDDNLDTERPVQKRARSGPQPRLPPCLLPLSPPTAPDRATAVATASRLGPYVLLEPEEGGRAYQALHCPTGTEYTCKVYPVQEALAVLEPYARLPPHKHVARPTEVLAGTQLLYAFFTRTHGDMHSLVRSRHRIPEPEAAVLFRQMATALAHCHQHGLVLRDLKLCRFVFADRERKKLVLENLEDSCVLTGPDDSLWDKHACPAYVGPEILSSRASYSGKAADVWSLGVALFTMLAGHYPFQDSEPVLLFGKIRRGAYALPAGLSAPARCLVRCLLRREPAERLTATGILLHPWLRQDPMPLAPTRSHLWEAAQVVPDGLGLDEAREEEGDREVVLYG
notes: TRIB3, untagged expression plasmid; also called unlabelled tribbles; untagged tribbles; source: HeLa, transfected, in live cells
On to B1, for which the “fold affinity to MKK4 relative to TRIB2” value was around 15 fold.

The record behind these values is paper PMC5013389, “Competition between members of the tribbles pseudokinase protein family shapes their interactions with mitogen activated protein kinase pathways” (Scientific Reports, 2016).
